Laboratory results as given in patent EP4019546A1.
Like-named read-outs stand apart in the source and are kept apart here.

Experiments:
human IL-31-His (human) [1] = molecular target: human IL-31-His (human) (UniProt Q6EBC2); test: SPR (Biacore T200), IL-31-His captured via anti-His antibody, scFv as analyte, 1:1 model
human IL-31 (human) [2] = molecular target: human IL-31 (human) (UniProt Q6EBC2); test: competitive ELISA, IL-31RA coated, biotinylated IL-31 preincubated with scFv; competitor IL-31RA
human IL-31-His (human) [3] = molecular target: human IL-31-His (human) (UniProt Q6EBC2); test: SPR (Biacore T200), IL-31-His captured via anti-His antibody, scFv as analyte, 1:1 model; remark: listed apart in the source
human IL-31 (human) [4] = molecular target: human IL-31 (human) (UniProt Q6EBC2); test: cell-based or functional assay
human IL-31 (human) [5] = molecular target: human IL-31 (human) (UniProt Q6EBC2); test: cell-based or functional assay; remark: listed apart in the source

Chain of human IL-31-His (human) (Q6EBC2 24-164 limits assumed): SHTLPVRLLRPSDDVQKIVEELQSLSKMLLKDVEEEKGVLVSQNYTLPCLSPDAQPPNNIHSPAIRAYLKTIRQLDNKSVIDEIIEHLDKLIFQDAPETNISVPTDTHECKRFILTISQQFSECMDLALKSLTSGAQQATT
Chain of human IL-31 (human) (Q6EBC2 24-164 limits assumed): as above

B1: PRO1643 (scFv, from another filing)
scFv: AFQLTQSPSSLSASVGDRVTITCQASQSIDSWLAWYQQKPGKPPKLLIYQASKLASGVPSRFSGSGSGTDYTLTISSLQPEDFATYYCQTYYGGGHIGWGFGTGTKVTVLGGGGGSGGGGSGGGGSGGGGSQSQLVESGGGLVQPGGSLRLSCAASGFSFSANYWICWVRQAPGKGLEWIVCIYIGSRADTYYAPWAKGRFTISKDNSKNTVYLQMNSLRAEDTAVYFCARFSSGIYDLDRFFLWGQGTLVTVSS
Human IL-31-His (human) [1]
  Kd: 1.13 nM
  koff: 0.000653 s⁻¹
  kon: 579000 M⁻¹ s⁻¹
Human IL-31 (human) [2]
  IC50: 4.58 ng/mL
  rel. IC50 (IC50, BMS-981164/IC50, test sample): 2.04
Human IL-31-His (human) [3]
  Kd: 0.505 nM
  koff: 0.000447 s⁻¹
  kon: 884000 M⁻¹ s⁻¹
Human IL-31 (human) [4]
  IC50, neutralization of hIL-31-induced signaling in IL-31RA/OSMR dimerization assay: 8.08 ng/mL
  rel. IC50 (IC50, BMS-981164/IC50, test sample), IL-31RA/OSMR dimerization assay: 0.85
Human IL-31 (human) [5]
  IC50, neutralization of hIL-31-induced signaling in IL-31RA/OSMR dimerization assay: 11.1 ng/mL
  rel. IC50 (IC50, BMS-981164/IC50, test sample), IL-31RA/OSMR dimerization assay: 1.16
